From article PMC4043820 come the findings set out here.

The data set deals with OsWRKY53 (WT) (Oryza sativa (rice)) (UniProt A7BEY7). The data set is described as follows: EMSA. Particulars: 12 mM HEPES-KOH pH 8.0, 60 mM KCl, 4 mM MgCl2, 1 mM EDTA, 12% glycerol, 1 mM DTT, 2.5 mM PMSF, 0.1 ug protein in 20 ul, 20 min on ice; 6% PAGE in 1x TBE at ….
Sequence of OsWRKY53 (WT) (Oryza sativa (rice)) (A7BEY7 entry or part of it): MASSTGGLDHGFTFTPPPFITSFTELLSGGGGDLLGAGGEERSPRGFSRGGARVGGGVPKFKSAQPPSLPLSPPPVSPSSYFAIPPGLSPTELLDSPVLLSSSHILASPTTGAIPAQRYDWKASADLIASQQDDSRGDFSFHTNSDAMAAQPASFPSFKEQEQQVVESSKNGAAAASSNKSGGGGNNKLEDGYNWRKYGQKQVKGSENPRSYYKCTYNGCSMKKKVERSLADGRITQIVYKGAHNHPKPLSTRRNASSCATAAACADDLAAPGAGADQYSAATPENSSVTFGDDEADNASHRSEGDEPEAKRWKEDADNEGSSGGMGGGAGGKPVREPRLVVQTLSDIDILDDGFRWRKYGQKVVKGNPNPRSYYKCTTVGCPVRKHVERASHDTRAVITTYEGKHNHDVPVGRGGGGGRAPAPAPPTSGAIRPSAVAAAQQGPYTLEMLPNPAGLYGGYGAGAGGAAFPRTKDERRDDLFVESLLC

For “TTTGGGGATGCTTCGGCGAAGGGGGTGAGGTCAAAGCTCGTGCGGTTTGACCGGTCAGACGAGGCGGCTGAGGCTCGCGC (double strand) [W-box probe (W)]”, the binding result is “binds”.
